# In patent US20110300138A1 (published 2011):
# Assays:
# [1] = target: full length human TSHR with mutation Arg255 Asp (human) (UniProt P16473); assay: TSHR260-AP bridge ELISA, Arg255 Asp TSHR on wells; IgG at 0.1 µg/mL in HBD
# [2] = target: human TSH receptor (full length) coated on ELISA plate wells (human) (UniProt P16473); assay: TSH-biotin binding inhibition ELISA, TSHR coated wells; 0.01 µg/mL in assay buffer + 100 µg/mL 5B3 IgG
# [3] = target: full length human TSHR with mutation Arg255 Asp (human) (UniProt P16473); assay: TSHR260-AP bridge ELISA, Arg255 Asp TSHR on wells; IgG at 1 µg/mL in HBD
# [4] = target: full length wild type human TSHR (human) (UniProt P16473); assay: TSHR260-AP bridge ELISA, wild type TSHR on wells; IgG at 0.01 µg/mL in HBD
# [5] = target: full length human TSHR with mutation Arg255 Asp (human) (UniProt P16473); assay: TSHR260-AP bridge ELISA, Arg255 Asp TSHR on wells; IgG at 0.05 µg/mL in HBD
# [6] = target: TSHR260-alkaline phosphatase (TSHR260-AP) (human) (UniProt P05187); assay: TSHR260-AP bridge ELISA, full length TSHR on wells; 0.005 µg/mL, diluted in assay buffer
# [7] = target: TSHR with Tyr206 mutated to Ala (human) (UniProt P16473); assay: cell-based or functional assay
# [8] = target: wild type TSHR (human) (UniProt P16473); assay: cell-based or functional assay
# [9] = target: wild type TSHR expressed in CHO cells (human) (UniProt P16473); assay: cell-based or functional assay
# [10] = target: TSHR with Asp232 mutated to Ala expressed in CHO cells (human) (UniProt P16473); assay: cell-based or functional assay
# [11] = target: TSHR with Phe134 mutated to Ala, expressed in CHO cells (human) (UniProt P16473); assay: cell-based or functional assay
# [12] = target: wild type TSHR expressed in CHO cells (human) (UniProt P16473); assay: cell-based or functional assay; remark: listed apart in the source
# [13] = target: TSHR260-alkaline phosphatase (TSHR260-AP) (human) (UniProt P05187); assay: TSHR260-AP bridge ELISA, full length TSHR on wells; 100 µg/mL, diluted in assay buffer
# [14] = target: thyroid stimulating hormone receptor (full length human TSHR) (human) (UniProt P16473); assay: ELISA: inhibition of M22 Fab-peroxidase (competitor) binding to TSHR coated wells; 0.1 µg/mL, diluted in assay buffer
# [15] = target: human thyroid stimulating hormone receptor (TSHR), full length (human) (UniProt P16473); assay: 125I-K1-70 Fab (competitor) binding to TSHR coated tubes; test sample 0.01 µg/mL in HBD serum
# [16] = target: thyroid stimulating hormone receptor (TSHR), full length, coated on tubes (human) (UniProt P16473); assay: inhibition of 125I-TSH binding, TSHR coated tubes; antibody 100 µg/mL in assay buffer
# [17] = target: human thyroid stimulating hormone receptor (TSHR), full length (human) (UniProt P16473); assay: 125I-K1-70 Fab (competitor) binding to TSHR coated tubes; test sample 0.1 µg/mL in assay buffer
# [18] = target: thyroid stimulating hormone receptor (TSHR), full length, coated on tubes (human) (UniProt P16473); assay: inhibition of 125I-TSH binding, TSHR coated tubes; antibody 10 µg/mL in HBD serum pool
# [19] = target: thyroid stimulating hormone receptor (TSHR), full length, coated on tubes (human) (UniProt P16473); assay: inhibition of 125I-TSH binding, TSHR coated tubes; antibody 100 µg/mL in HBD serum pool
# [20] = target: human thyroid stimulating hormone receptor (TSHR), full length (human) (UniProt P16473); assay: 125I-K1-70 Fab (competitor) binding to TSHR coated tubes; test sample 10 µg/mL in assay buffer
# [21] = target: human thyroid stimulating hormone receptor (TSHR), full length (human) (UniProt P16473); assay: 125I-K1-70 Fab (competitor) binding to TSHR coated tubes; test sample 100 µg/mL in assay buffer
# [22] = target: human thyroid stimulating hormone receptor (TSHR), full length (human) (UniProt P16473); assay: 125I-K1-70 Fab (competitor) binding to TSHR coated tubes; test sample 1 µg/mL in HBD serum
# [23] = target: human thyroid stimulating hormone receptor (TSHR), full length (human) (UniProt P16473); assay: 125I-K1-70 Fab (competitor) binding to TSHR coated tubes; test sample 1 µg/mL in assay buffer
# Sequence of M22 IgG (antibody) (VH): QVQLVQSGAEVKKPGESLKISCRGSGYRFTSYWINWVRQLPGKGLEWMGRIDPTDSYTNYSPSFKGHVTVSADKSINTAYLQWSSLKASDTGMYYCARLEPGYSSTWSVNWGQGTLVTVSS
# Sequence of M22 IgG (antibody) (V domain): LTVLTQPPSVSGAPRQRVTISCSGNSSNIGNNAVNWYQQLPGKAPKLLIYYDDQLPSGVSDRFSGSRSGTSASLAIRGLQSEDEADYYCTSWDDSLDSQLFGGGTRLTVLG
molecule,measurement,setting,value
M22 IgG (antibody),Mean absorbance at 405 nm (absorbance at 405 nm),[1],0.05
same,% inhibition of TSH-biotin binding,[2],12.9%
same,Mean absorbance at 405 nm (absorbance at 405 nm),[3],0.34
same,Mean absorbance at 405 nm (absorbance at 405 nm),[4],0.064
same,Mean absorbance at 405 nm (absorbance at 405 nm),[5],0.017
same,Mean absorbance at 405 nm (absorbance at 405 nm),[6],0.075
TSH (ligand),"% inhibition of TSH stimulation, TSH (2) run at the end of assay, mutated TSHR",[7],16%
same,"Cyclic AMP produced (pmol/mL), TSH 3 ng/mL, mutated TSHR",[7],82.9 pmol/mL
same,"Cyclic AMP produced (pmol/mL), TSH (2) 3 ng/mL run at the end of assay, mutated TSHR",[7],69.5 pmol/mL
same,Mutated/wild type (%) of cyclic AMP produced; TSH 3 ng/mL,[7],90%
same,"Mutated/wild type (%) of cyclic AMP produced; TSH (2) 3 ng/mL, run at the end of assay",[7],64%
same,"Cyclic AMP produced (pmol/mL), TSH 3 ng/mL, wild type TSHR",[8],92.2 pmol/mL
same,"Cyclic AMP produced (pmol/mL), TSH (2) 3 ng/mL run at the end of assay, wild type TSHR",[8],108 pmol/mL
same,"% inhibition of TSH stimulation; TSH (2), run at the end of assay",[9],0%
same,"% inhibition of TSH stimulation; TSH (2), run at the end of assay",[10],0%
same,Mutated/wild type (%) of cyclic AMP produced; TSH 3 ng/mL,[10],70%
same,"Mutated/wild type (%) of cyclic AMP produced; TSH (2) 3 ng/mL, run at the end of assay",[10],76%
same,% inhibition of TSH stimulation; TSH (2),[11],9%
same,Cyclic AMP produced; TSH 3 ng/mL,[11],111 pmol/mL
same,Cyclic AMP produced; TSH (2),[11],102 pmol/mL
same,Mutated/wild type (%) of cyclic AMP produced; TSH 3 ng/mL,[11],103%
same,Mutated/wild type (%) of cyclic AMP produced; TSH (2),[11],71%
same,Cyclic AMP produced; TSH 3 ng/mL,[12],108 pmol/mL
same,Cyclic AMP produced; TSH (2),[12],142 pmol/mL
"5C9 IgG (antibody, from another filing, V domains shown) VH: EVQLVESGGGLIQPGGSLRLSCAASGFTVSSNYMSWVRQAPGKGLEWVSVTYSGGSTSYADSVKGRFTISRDNSKNTLYLQMNSLRAEDTAVYYCARGGRYCSSISCYARSGCDYWGQGTLVTVSS VL: AIQMTQSPSSLSASVGDRVTITCRASQSISNYLNWYQQKPGKAPKLLIYAASSLQSGVPSRFSGSGSGTDFTLTISSLQPEDFATYYCQQSYSSPSTTFGQGTKLEIK",% inhibition of TSH-biotin binding,[2],20.7%
same,Mean absorbance at 405 nm (absorbance at 405 nm),[13],0.669
same,Inhibition of binding (%),[14],7.1%
same,Inhibition of binding (%),[15],-4.4%
same,Inhibition of binding (%),[16],82.9%
same,Inhibition of binding (%),[17],21.9%
same,Inhibition of binding (%),[18],40.9%
same,Inhibition of binding (%),[19],35.3%
same,Inhibition of binding (%),[20],80.4%
same,Inhibition of binding (%),[21],93.3%
same,Inhibition of binding (%),[22],8.1%
same,Inhibition of binding (%),[23],41.5%
same,Mean absorbance at 405 nm (absorbance at 405 nm),[6],-0.009
